Assay results as given in PMC3701624, “Three-Dimensional Structure of Human NLRP10/PYNOD Pyrin Domain Reveals a Homotypic Interaction Site Distinct from Its Mouse Homologue” (PLoS ONE, 2013).
One block for each binder: values may come before it.

How the values were obtained:
[1] = target: T1, MBP-huNLRP10ΔPYD (Arg103-Ile655) (Homo sapiens (Human), UniProt Q86W26); assay: size-exclusion chromatography and pull-down (data not shown)
T1 chain: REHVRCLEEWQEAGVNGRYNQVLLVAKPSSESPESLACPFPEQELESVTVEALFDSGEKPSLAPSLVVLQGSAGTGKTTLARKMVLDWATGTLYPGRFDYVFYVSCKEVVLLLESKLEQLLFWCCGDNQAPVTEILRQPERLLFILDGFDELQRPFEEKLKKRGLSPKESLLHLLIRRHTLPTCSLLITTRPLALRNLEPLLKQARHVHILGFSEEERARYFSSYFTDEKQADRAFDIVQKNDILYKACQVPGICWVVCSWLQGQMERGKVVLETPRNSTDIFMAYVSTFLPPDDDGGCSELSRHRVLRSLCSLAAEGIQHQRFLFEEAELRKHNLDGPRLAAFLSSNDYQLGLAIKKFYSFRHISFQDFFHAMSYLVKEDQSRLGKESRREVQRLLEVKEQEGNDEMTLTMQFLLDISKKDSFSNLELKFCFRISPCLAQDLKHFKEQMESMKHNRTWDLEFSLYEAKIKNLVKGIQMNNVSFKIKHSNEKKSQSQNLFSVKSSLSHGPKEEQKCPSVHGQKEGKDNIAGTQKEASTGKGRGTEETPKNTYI

[2] = substrate: Nc1ncnc2c1ncn2[C@@H]1O[C@H](COP(=O)(O)OP(=O)(O)OP(=O)(O)O)[C@@H](O)[C@H]1O; assay: malachite green phosphate release, Lineweaver-Burk; assay type: biochemical, Homo sapiens; settings: 50 mM Tris-HCl pH 8.0, 10 mM MgCl2, 37°C, 3 µM protein, 0.1–3.2 mM nucleotide
From the text: (§1) malachite green phosphate release, Lineweaver-Burk on MBP-huNLRP10ΔPYD (huNLRP10ΔPYD)

[3] = substrate: Nc1nc2c(ncn2[C@@H]2O[C@H](COP(=O)(O)OP(=O)(O)OP(=O)(O)O)[C@@H](O)[C@H]2O)c(=O)[nH]1; assay: malachite green phosphate release, Lineweaver-Burk; assay type: biochemical, Homo sapiens; settings: 50 mM Tris-HCl pH 8.0, 10 mM MgCl2, 37°C, 3 µM protein, 0.1–3.2 mM nucleotide
From the text: as §1

[4] = substrate: Nc1ncnc2c1ncn2[C@@H]1O[C@H](COP(=O)(O)OP(=O)(O)OP(=O)(O)O)[C@@H](O)[C@H]1O; assay: malachite green phosphate release, Lineweaver-Burk; assay type: biochemical, Homo sapiens; settings: 50 mM Tris-HCl pH 8.0, 10 mM MgCl2, 37°C, 3 µM protein, 0.1–3.2 mM nucleotide; remark: listed apart in the source
From the text: (§2) malachite green phosphate release, Lineweaver-Burk on MBP-huNLRP10 (huNLRP10, PYNOD)

[5] = substrate: Nc1nc2c(ncn2[C@@H]2O[C@H](COP(=O)(O)OP(=O)(O)OP(=O)(O)O)[C@@H](O)[C@H]2O)c(=O)[nH]1; assay: malachite green phosphate release, Lineweaver-Burk; assay type: biochemical, Homo sapiens; settings: 50 mM Tris-HCl pH 8.0, 10 mM MgCl2, 37°C, 3 µM protein, 0.1–3.2 mM nucleotide; remark: listed apart in the source
From the text: as §2

binding result [1]: no binding
B1: human NLRP10/PYNOD pyrin domain (residues 1-100) (protein)
chain: MAMAKARKPREALLWALSDLEENDFKKLKFYLRDMTLSEGQPPLARGELEGLIPVDLAELLISKYGEKEAVKVVLKGLKVMNLLELVDQLSHICLHDYRE

B2: MBP-huNLRP10ΔPYD (huNLRP10ΔPYD) (Homo sapiens) (protein)
chain: T1 chain
notes: NOD only, pyrin domain removed (Arg103-Ile655), N-terminal His6-MBP fusion (pETM41), tag kept; E. coli BL21(DE3)
Km [2]: 201.9 ± 1.9 µM
Km [3]: 193.7 ± 17.1 µM

B3: MBP-huNLRP10 (huNLRP10, PYNOD) (Homo sapiens) (protein)
chain: MAMAKARKPREALLWALSDLEENDFKKLKFYLRDMTLSEGQPPLARGELEGLIPVDLAELLISKYGEKEAVKVVLKGLKVMNLLELVDQLSHICLHDYREVYREHVRCLEEWQEAGVNGRYNQVLLVAKPSSESPESLACPFPEQELESVTVEALFDSGEKPSLAPSLVVLQGSAGTGKTTLARKMVLDWATGTLYPGRFDYVFYVSCKEVVLLLESKLEQLLFWCCGDNQAPVTEILRQPERLLFILDGFDELQRPFEEKLKKRGLSPKESLLHLLIRRHTLPTCSLLITTRPLALRNLEPLLKQARHVHILGFSEEERARYFSSYFTDEKQADRAFDIVQKNDILYKACQVPGICWVVCSWLQGQMERGKVVLETPRNSTDIFMAYVSTFLPPDDDGGCSELSRHRVLRSLCSLAAEGIQHQRFLFEEAELRKHNLDGPRLAAFLSSNDYQLGLAIKKFYSFRHISFQDFFHAMSYLVKEDQSRLGKESRREVQRLLEVKEQEGNDEMTLTMQFLLDISKKDSFSNLELKFCFRISPCLAQDLKHFKEQMESMKHNRTWDLEFSLYEAKIKNLVKGIQMNNVSFKIKHSNEKKSQSQNLFSVKSSLSHGPKEEQKCPSVHGQKEGKDNIAGTQKEASTGKGRGTEETPKNTYI
notes: full length (Met1-Ile655), N-terminal His6-MBP fusion (pETM41), tag kept; E. coli BL21(DE3)
Km [4]: 169.3 ± 7.3 µM
Km [5]: 295.6 ± 11.0 µM
